Reference: paper PMC10297700

Biological target: Rsc3ΔIDR (Saccharomyces cerevisiae, UniProt Q06639 1-885, del197-303)
Experiment: EMSA

B1: ACC1_TIM23 probe (RSC3 consensus oligonucleotide) (dsDNA)
DNA 1: ACGCGCGCGCGGCCGGGCCA
DNA 2: TGGCCCGGCCGCGCGCGCGT
binding result: binds
